Reference: the domain aggregation screens of Martell et al. (2025)

experiment: soluble fraction after stress (log2 fold change); higher = more stays soluble; pooled small domains, quantitative proteomics; settings: stress: 50 degC
Summary of the method: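 Pooled custom libraries of small protein domains were measured in a high-throughput format, with quantitative proteomics as the read-out. Each library was stressed at 50°C. Aggregation propensity is given as the base-two logarithm of the fold change in how much of each protein stays soluble after the stress. Higher values mean a larger share of the protein remains in solution.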

| Sequence | soluble fraction (log2) |
| --- | --- |
| HMVTEKPLYRDELMDHDTVWVEPISMDSHLRMELRGWYHVKNRFVENEVGQRFYFDFYDIKWLAFTNGP | -2.08 |
| HMIGIRLKELVLKNQSAWVGLRVSELDISRKTMIVMIRRGDKMLIPNGSTILRSGDVLLLYTR | -0.452 |
| HMRITRREQQVLHLLAMGMTTREIAGHINLTERTVRNRISNLRDKLGAQTASQLLAKAVAQGLIEP | -2.02 |
| HMEQMSPYPNPSKGKIQFHNQEPMDIKVFNSLGQIVFEQRILSRAILDLSRLSPGQYIVQAGEQKNIWIK | -0.699 |
| HMLPRLVLSPGTEVLATVMGKYENGMSLVKISSHLFAMDLPSRVQVGDSLRMTFLHQDARPTFALA | -0.779 |
| HMSGGNTSAFKGKLNYEYRGNDTIITGSTYPVKELIKKAGGRWDPGSSAWIIKGRHVSDNEIF | 0.171 |
| HMVETVQVVGAGQDIMPGSRINYSSLHYITVPRSYFHEDMFAKNNLVVGRIARAYVAKGEPLLAASLMPK | -2.54 |
| HMDLRIIKTKKAIKTAFLNLLKENKYHNITISAISETALINRKTFYAHYETKDELYADVIEDALRVLSP | 0.0478 |
| HMEALQKVSINYYDEGAGKQIAEVPLEVGAGDTEIALAVINKYMPAEYNLVSTDYQIRGGYVYVSVTPA | -0.072 |
| HMDIIIEEGIDESLSTDDAILDLLGRASDAFSNAQKALLEGDLGSYQKLIEQAERLVKKATELLGENN | -0.0938 |
| HMDREIVEAIVPLEAAGKRFDAALAEMFPEFSRSRLTEWIKAGDALLAGEIVKPKVSVRGGEAVSLSIRV | -0.485 |
| HMAAPVGLTQRQMEVAALVADGLTNAEIGRRLHITERSAESHLERVRIRLGFRSRAQVAAWFVTQE | -3.5 |
| HMRTVPEALLGRAYETAETAIVLEGLEAKRTDVFHPTIGNGTVIRLEPASGSQVSAGGVIEIFVSKGTETI | -0.305 |
| HMAKIKVFELKNQINSLIKNKIESKDIIDFIETNFGVKKSHSSALEENEANFIKNYFVHADKA | 0.195 |
| HMSAEKPVKSELFYKSMLNSFEQAVRFMIANGILEDFKSRIVAINNETNHQNWFNKQEFNAIIERF | -0.449 |
| HMSRSLLAALEKLRESHTGSLPASVLSSAQRRSLESFAQTTKSVQMRPSGRGVVFAIINPEVVDKHWRELS | -0.497 |
| HMTEEELLERLDAVITEYKGKPGALIPVLQLAQGIFGYLPEVALKHIARQLDKPYSEVAGVVSFYSFFTT | 0.0488 |
| HMSNTIFGINGPVVTVASKDFSMQEMVYVGNERLVGEVISIDDDLTTIQVYEVTTGLKPGEPVVGTGSAM | -0.531 |
| HMWNGIVDAGKARQHLMNLSQLGVGRRAVAAASDVAETVLMDIRSGTKTRIRARTERQILAVTPEMA | -2.23 |
| HMTGQVASMVERLAQRLKDQPQDAEGWAMLARSYSVLGRHPEALQAYEKALALRKDDANLLADYADSLA | -0.087 |
| HMTALISGNKAMQMLELSRHSFEKIVKDGLLSIVHEGDKKYYEIGEVEAFMGSDTYKELVNGV | -0.345 |
| HMSQSDLASAIGARVTIRLREASGGFRDIVGVLQRFGSGYGELINSKGEALTFSESEIAIWREVKA | -0.358 |
| HMGSQSYVAIVNERFKESDIVELGGSVGSRTGDIITLHFRNSSPNELKNITGIVYLQVANKVTPKL | -0.612 |
| HMIDFIGLEAKLLSTISGEKMGNAEVIVDGNVMNIYVKSLDTSEIKFRENVLIIKQSDDKNYYLVAKP | -0.453 |
| HMAEPLEIGDTVRIIDGFYGGEIGVISELVNPDAKNAEFEQVRVRLDQDTELALPIHNVERVRL | 0.25 |

| Sequence | soluble fraction (log2) |
| --- | --- |
| HMLIDSEILKKTNKITIFLIYAFFSEYLINKEKKKILIGEYIKLSKDFLTIEEVKYFNHLLDDISK | 0.0074 |
| HMISDAEWKIMNVLWEEQPRTMMQITKELQEETGWTKHTVMTYLKRMESKKIIHYVEGEKAKLYYS | -0.0967 |
| HMTNELVNVNKLLDVMEPSIPLTALEIMTRLGIKSKETLRNSYLNPAIKLGMINLTSPLKPTSKNQMYYK | -0.307 |
| HMAEWIYGKNVVKQSIEEGMVLKLILQRKEDPLFVLAQEKQIPVEILDRHKMTSLVKSDRHQGVAAQI | -0.477 |
| HMNLNLDITTYKLEELENLLKLKPNYKQEQIFEAKTKMEKFILKSNLNESKREELYIFLDNIYNKLTNNLL | -2.17 |
| HMDKESQTMFRLLTGVSGVGPKVGLAILSVLSPDRVVLAISAGDHKAFTAASGVGPKLGQRIVLELKDKVG | -3.12 |
| HMGNFGDLLKILLDEKELSMGELSKKSGIDKSTISRIANNKQKPNINHLEKMAIHLNINLEELLKASGYEF | -0.364 |
| HMHNLYAPTQKEVDHARRVVEAAEAAAREGLGVVSLNGKMVDGPVIDRARLVLSRAELSGIRE | 0.072 |
| HMENYGEAITYIHGMIEDSSEKMLAASKALKVNANTLIKFMKDPYSVAAHIRDRIVENLANLEKAVKAI | 0.075 |
| HMSTPTVDTKTKLDLYNLLYKKDLNYLDAYNFVLDNFGSDNIDIMFKMLGLDFTNWVIENKPE | 0.0375 |
| HMIRDVDYNTFVSMVQEGKVGQVEIQEQNNRILFTDKDERTVYKTAMVPDSDLISRLLEAGVSTS | 0.204 |
| HMEDEVYFVPSPASRFNPWIAALASRRVPYRVEYDGAERRIAVPAGYAEKAGEELAAYERINHAWPR | -0.271 |
| HMSEPQEISYSDFIEQVNRNEIRQVEFDGQHEYLTVIRKDTSRFKVIIPAPDPRLLDDLMEHDVEIVGKE | 0.0895 |
| HMTEFWTGPITTVTKANFADWTLDTNQDRITANVWLTRADSKGLFNITPGKETAFDIVDYLSPLDTEWA | -0.188 |
| HMSAGPQGRTPREDELTVGTKVYVSRVGASGVVSSDVSRGKVVVQVGALRLTAAVSELLLLDG | 0.151 |
| HMSENPLTSREIEIVQLLANGKTTKSIAEELHLSNGTIRNYVSIVLDKLNVSNRIEAIRKALDKGWL | -1.29 |
| HMIQYRKILELHFKDISQRTISTSVGSSRNTVSDVIKRSEQLGLERLTDNMNNRWLEEFLFPEKQ | -4.17 |
| HMFDGYQWLKRDIIRGVYQPEEKLRMSLLTNRYGLGVGPLREALSQLVAEHLVTVVSQKGYRVAPM | -0.112 |
| HMTGLSAQILAKLRDNHGVLPVSDKSDPAVISNLFGVSKGNFKKAIGGLYKEGQIVIHADRIEL | -0.0576 |
| HMSQLDITEARIVVSGGLGMQGPENFKLLEELAKVLGGAVGASRPVVDNGWREYSNQVGQTGKIVAPELYV | -0.0903 |
| HMAVSGRMMVYEYIRQQMREGSLLPGSVLDLPAISHKLGISNTPLRDSLIRLEAEGYLTIYPRSKVVIN | -2.87 |
| HMKDYTIDDIINSKVEHPLGGYQSRFKVGEYEVSVVGGRQTNHGDFIHTFELAIFDKNNNFLRNLTPVTID | -0.0394 |
| HMVERRVRFTVAPGNAGLRLDLFLTAREIGLSRTQVGRAVDEGQIQVNGRPGRAGRKLKTGDVVAIVLPA | -0.783 |
| HMEQQSIYLENRERMTINQVIDVDAFDEETLWANLKEGAVEISGSGLHIEKLDLAEGVLIVSGIIRAFAYV | -0.647 |
| HMDAIDPKTVTSWADLWKPEYKSSLLLTDDAREVFQMALRKLGYSGNTTDPKEIEAAYNELKKLMPNVAAF | -0.0387 |

| Sequence | soluble fraction (log2) |
| --- | --- |
| HMKKLTAEEIQEAKDILEKIQEIPNFKKIFGDDTIKALENSTKTGVLLPDNIISKIHTLMIRFGIK | 0.237 |
| HMRGHASVEIKRIVYKYKLTDQELAKITGMKASDFPIYHDHLQLILPKRYWARVLDALQNYEKEHES | -4.18 |
| HMTNSTGWSKSGGTQVTIREGETIYNLSRRYGVPAKSIMEANGIADATAVRAGQRISIPTYSY | 0.0505 |
| HMSYPTAVTQTTLNVRTGPGTQYERLGAFVENTEVIVLTRQPEWIQVRGMSGDKAIIGWVSARYLQMNP | -0.457 |
| HMTLYQIGDKVVHPMHGAGVIDSVVQRKVSGQVQEFYLLKLSVGNMVVMVPTDNTGEIGMRP | -1.01 |
| HMLPPVFLTIDANENVIVRKDGEPVQTLNKFELGAFARSQAENSAEQPVVLAADKSIKYEVVMEVI | 0.0698 |
| HMQISDTASIQEIAKEIIKSNPKAVEDYKKGKENALQFLVGQLMTKTKGTVHPGAARTILGDILK | 0.0851 |
| HMGATYSQFLDQVDGGNVQKVTFSGDMRSGTNQISYTTRSGQSATITAPMDRDLINILRAKNVEIVQEEP | 0.026 |
| HMGFLTGNTQGEVNRKTKNQMVNIFLPTTPNPTSGFLLFVPKKDILRLTMTVEEGIKMIISAGMLTPS | -0.173 |
| HMEEDGAPLESREVLLDQAISQGKGTQWTIATETKLEDHIVSGAYSTDGKVTLAVFSPLGDGKYEFSSSVN | 0.0751 |
| HMALEVPGIAKDKIYRIFGQLYERQQKWEDAIDYYNRAVFFTLSGTDMILYQEDLSRVKQKISL | -0.0269 |
| HMREIKSNEILLEVENLKNSEFFNDINFNIKKGEIVGFSGLIGAGRTELALTLFGYYKAESGKVIQ | 0.061 |
| HMNNSSIGERLKYQRKIKGYSQEELADRTNVTVRTIQRIEKEEVSPHLNTIKLLAIALDIEVDELVAL | -1.25 |
| HMTPILTAQQVVAALQAAGYRNVHDLEFEHGRWEADAVNAAGQRVELHINPYTGAIERERLD | ≥ 0.62 |
| HMDDPYAGLRQRAYLFLRERDGAVPEEELIEHVFGSSGNPALWRPLLRQVLGADDRLDLRADGYWALRG | 0.118 |
| HMSNPPLPFLAKTKVSWTGEQDGDLGFLENEVVKVFHVVDELWWQGSLSRNGAEGIFPRDFVEVISAP | -1.8 |
| HMSWDNELLERAHKIIELYPQKRSALGPLLYLAQEKDGFISDDSIVEISNLVDITEVQVKSVSSFYSMY | -0.268 |
| HMLDKRSHAKKVLDAIEAVILGRATNDQLAYTINGRSLQKTPLPDLLRLRSQYQAEYQRELRAERIRKG | -0.131 |
| HMGQAVTVPELKGLSFDEAIEKLDDAGLKYEVVDSNYVEDMKPGTVFETLPEAGSRVKPRRIVFLTINAF | -0.319 |
| HMEGLEKDDGGYYFEKDNGERARNEWVYVEYEGKGYWYYMTDYGYPLRSAITPDGYKVNSNGHWIDEGN | -0.825 |
| HMDINVDILPLLKTMTDTLRKVIELDIPFLKDARVQRVNSLDELLLRADITTAEKFRKVFEAYQIEADFGK | -0.804 |
| HMARTIINLPLRNSVDESYNTTVNILQANGFKEVSYNGETVWKKGTGLLTAMQYIKIEFTDTTLVVSGWVQ | ≥ 0.62 |
| HMSEITMMQMEIPEGHNWENRLVKDVSMPTGSLAVMIKRHGETLIPGGDTRILAGDTIVLSVPAYESG | -0.0716 |
| HMVEDPADNQKAADAVIKKISEIGEVTESSENLIKEARASYDALTDNQKELVTNYDVLVQAEAQLENIKD | -0.0306 |
| HMVKLSATVKELLDFVIAKKTVTSSNVSKHFDISAQNASGRLKKLHATGLVLGQKEVAESGGLEFVYRS | -0.183 |
